Results published in US9816117B2, “Methods, reagents and cells for biosynthesizing compounds” (INVISTA North America S.á r.l., priority 2014, dated 2017).

What was measured:
Type in all cases: biochemical
[1] = ω-transaminase enzyme activity assay, reverse direction (6-aminohexanoate to adipate semialdehyde); conditions: cell free extract; 10 mM 6-aminohexanoate, 10 mM pyruvate; 25° C., 24 h; against empty vector control (FIG. 17)
Procedure: (§1) A nucleotide sequence encoding a His-tag was added to the genes from Chromobacterium violaceum, Pseudomonas aeruginosa, Pseudomonas syringae, Rhodobacter sphaeroides, and Vibrio fluvialis encoding the ω-transaminases of SEQ ID NOs: 7, 8, 9, 10 and 12, respectively (see FIG. 9) such that N-terminal HIS tagged w-transaminases could be produced. Each of the resulting modified genes was cloned into a pET21a expression vector under control of the T7 promoter and each expression vector was transformed into a BL21[DE3] E. coli host. The resulting recombinant E. coli strains were cultivated at 37° C. in a 250 mL shake flask culture containing 50 mL LB media and antibiotic selection pressure, with shaking at 230 rpm. Each culture was induced overnight at 16° C. using 1 mM IPTG.
(§2) The pellet from each induced shake flask culture was harvested via centrifugation. Each pellet was resuspended and lysed via sonication. The cell debris was separated from the supernatant via centrifugation and the cell free extract was used immediately in enzyme activity assays.
Enzyme activity assays in the reverse direction (i.e., 6-aminohexanoate to adipate semialdehyde) were performed in a buffer composed of a final concentration of 50 mM HEPES buffer (pH=7.5), 10 mM 6-aminohexanoate, 10 mM pyruvate and 100 μM pyridoxyl 5′ phosphate. Each enzyme activity assay reaction was initiated by adding cell free extract of the ω-transaminase gene product or the empty vector control to the assay buffer containing the 6-aminohexanoate and incubated at 25° C. for 24 h, with shaking at 250 rpm. The formation of L-alanine from pyruvate was quantified via RP-HPLC.

[2] = ω-transaminase enzyme activity assay, forward direction (adipate semialdehyde to 6-aminohexanoate); conditions: cell free extract; 10 mM adipate semialdehyde, 10 mM L-alanine; 25° C., 4 h; against empty vector control (FIG. 18)
Procedure: as §1, §2
Enzyme activity in the forward direction (i.e., adipate semialdehyde to 6-aminohexanoate) was confirmed for the transaminases of SEQ ID NO 7, SEQ ID NO 8, SEQ ID NO 9, SEQ ID NO 10 and SEQ ID NO 12. Enzyme activity assays were performed in a buffer composed of a final concentration of 50 mM HEPES buffer (pH=7.5), 10 mM adipate semialdehyde, 10 mM L-alanine and 100 μM pyridoxyl 5′ phosphate. Each enzyme activity assay reaction was initiated by adding a cell free extract of the ω-transaminase gene product or the empty vector control to the assay buffer containing the adipate semialdehyde and incubated at 25° C. for 4 h, with shaking at 250 rpm. The formation of pyruvate was quantified via RP-HPLC.

[3] = carboxylate reductase enzyme activity assay (adipate to adipate semialdehyde); conditions: purified enzyme enhanced by sfp gene product; 2 mM adipate; room temperature, 20 min; against empty vector control (FIG. 12)
Procedure: A sequence encoding a HIS-tag was added to the genes from Segniliparus rugosus and Segniliparus rotundus that encode the carboxylate reductases of SEQ ID NOs: 4 and 6, respectively (see FIG. 9), such that N-terminal HIS tagged carboxylate reductases could be produced. Each of the modified genes was cloned into a pET Duet expression vector along with a sfp gene encoding a HIS-tagged phosphopantetheine transferase from Bacillus subtilis, both under the T7 promoter. Each expression vector was transformed into a BL21[DE3] E. coli host and the resulting recombinant E. coli strains were cultivated at 37° C. in a 250 mL shake flask culture containing 50 mL LB media and antibiotic selection pressure, with shaking at 230 rpm. Each culture was induced overnight at 37° C. using an auto-induction media.
The pellet from each induced shake flask culture was harvested via centrifugation. Each pellet was resuspended and lysed via sonication, and the cell debris was separated from the supernatant via centrifugation. […]
Enzyme activity assays (i.e., from adipate to adipate semialdehyde) were performed in triplicate in a buffer composed of a final concentration of 50 mM HEPES buffer (pH=7.5), 2 mM adipate, 10 mM MgCl2, 1 mM ATP and 1 mM NADPH. […] The consumption of NADPH was monitored by absorbance at 340 nm.

Row | ω-transaminase activity: acceptance of 6-aminohexanoate as substrate (formation of L-alanine from pyruvate, RP-HPLC) [1] | Molecule | ω-transaminase activity: acceptance of adipate semialdehyde as substrate (formation of pyruvate, RP-HPLC) [2] | carboxylate reductase activity: acceptance of adipate as substrate (consumption of NADPH, absorbance at 340 nm) [3]
1 | accepted 6-aminohexanote as substrate | SEQ ID NO 10: Rhodobacter sphaeroides ω-transaminase (Genbank Accession No. ABA81135.1) | accepted adipate semialdehyde as substrate | –
2 | accepted 6-aminohexanote as substrate | SEQ ID NO 9: Pseudomonas syringae ω-transaminase (Genbank Accession No. AAY39893.1) (protein, listed as Pseudomonas syringae) MSANNPQTLEWQALSSEHHLAPFSDYKQLKEKGPRIITRAEGVYLWDSEGNKILDGMSGLWCVAIGYGREELADAASKQMRELPYYNLFFQTAHPPVLELAKAISDIAPEGMNHVFFTGSGSEGNDTMLRMVRHYWALKGQPNKKTIISRVNGYHGSTVAGASLGGMTYMHEQGDLPIPGVVHIPQPYWFGEGGDMTPDEFGIWAAEQLEKKILELGVENVGAFIAEPIQGAGGVIVPPDSYWPKIKEILSRYDILFAADEVICGFGRTSEWFGSDFYGLRPDMMTIAKGLTSGYVPMGGLIVRDEIVAVLNEGGDFNHGFTYSGHPVAAAVALENIRILREEKIVERVRSETAPYLQKRLRELSDHPLVGEVRGVGLLGAIELVKDKTTRERYTDKGAGMICRTFCFDNGLIMRAVGDTMIIAPPLVISFAQIDELVEKARTCLDLTLAVLQG | accepted adipate semialdehyde as substrate | –
3 | accepted 6-aminohexanote as substrate | SEQ ID NO 12: Vibrio Fluvialis ω-transaminase (Genbank Accession No. AEA39183.1) (protein, Vibrio Fluvialis) MNKPQSWEARAETYSLYGFTDMPSLHQRGTVVVTHGEGPYIVDVNGRRYLDANSGLWNMVAGFDHKGLIDAAKAQYERFPGYHAFFGRMSDQTVMLSEKLVEVSPFDSGRVFYTNSGSEANDTMVKMLWFLHAAEGKPQKRKILTRWNAYHGVTAVSASMTGKPYNSVFGLPLPGFVHLTCPHYWRYGEEGETEEQFVARLARELEETIQREGADTIAGFFAEPVMGAGGVIPPAKGYFQAILPILRKYDIPVISDEVICGFGRTGNTWGCVTYDFTPDAIISSKNLTAGFFPMGAVILGPELSKRLETAIEAIEEFPHGFTASGHPVGCAIALKAIDVVMNEGLAENVRRLAPRFEERLKHIAERPNIGEYRGIGFMWALEAVKDKASKTPFDGNLSVSERIANTCTDLGLICRPLGQSVVLCPPFILTEAQMDEMFDKLEKALDKVFAEVA | accepted adipate semialdehyde as substrate | –

Further lines, the molecule ahead of its results:

Row | Molecule | ω-transaminase activity: acceptance of 6-aminohexanoate as substrate (formation of L-alanine from pyruvate, RP-HPLC) [1] | ω-transaminase activity: acceptance of adipate semialdehyde as substrate (formation of pyruvate, RP-HPLC) [2] | carboxylate reductase activity: acceptance of adipate as substrate (consumption of NADPH, absorbance at 340 nm) [3]
4 | SEQ ID NO 4: Segniliparus rugosus carboxylate reductase (Genbank Accession No. EFV11917.1) (protein, listed as Segniliparus rugosus) MGDGEERAKRFFQRIGELSATDPQFAAAAPDPAVVEAVSDPSLSFTRYLDTLMRGYAERPALAHRVGAGYETISYGELWARVGAIAAAWQADGLAPGDFVATVGFTSPDYVAVDLAAARSGLVSVPLQAGASLAQLVGILEETEPKVLAASASSLEGAVACALAAPSVQRLVVFDLRGPDASESAADERRGALADAEEQLARAGRAVVVETLADLAARGEALPEAPLFEPAEGEDPLALLIYTSGSTGAPKGAMYSQRLVSQLWGRTPVVPGMPNISLHYMPLSHSYGRAVLAGALSAGGTAHFTANSDLSTLFEDIALARPTFLALVPRVCEMLFQESQRGQDVAELRERVLGGRLLVAVCGSAPLSPEMRAFMEEVLGFPLLDGYGSTEALGVMRNGIIQRPPVIDYKLVDVPELGYRTTDKPYPRGELCIRSTSLISGYYKRPEITAEVFDAQGYYKTGDVMAEIAPDHLVYVDRSKNVLKLSQGEFVAVAKLEAAYGTSPYVKQIFVYGNSERSFLLAVVVPNAEVLGARDQEEAKPLIAASLQKIAKEAGLQSYEVPRDFLIETEPFTTQNGLLSEVGKLLRPKLKARYGEALEARYDEIAHGQADELRALRDGAGQRPVVETVVRAAVAISGSEGAEVGPEANFADLGGDSLSALSLANLLHDVFEVEVPVRIIIGPTASLAGIAKHIEAERAGASAPTAASVHGAGATRIRASELTLEKFLPEDLLAAAKGLPAADQVRTVLLTGANGWLGRFLALEQLERLARSGQDGGKLICLVRGKDAAAARRRIEETLGTDPALAARFAELAEGRLEVVPGDVGEPKFGLDDAAWDRLAEEVDVIVHPAALVNHVLPYHQLFGPNVVGTAEIIRLAITAKRKPVTYLSTVAVAAGVEPSSFEEDGDIRAVVPERPLGDGYANGYGNSKWAGEVLLREAHELVGLPVAVFRSDMILAHTRYTGQLNVPDQFTRLVLSLLATGIAPKSFYQQGAAGERQRAHYDGIPVDFTAEAITTLGAEPSWFDGGAGFRSFDVFNPHHDGVGLDEFVDWLIEAGHPISRIDDHKEWFARFETAVRGLPEAQRQHSLLPLLRAYSFPHPPVDGSVYPTGKFQGAVKAAQVGSDHDVPHLGKALIVKYADDLKALGLL | – | – | accepted adipate as substrate
5 | SEQ ID NO 8: Pseudomonas aeruginosa ω-transaminase (Genbank Accession No. AAG08191.1) (protein, listed as Pseudomonas aeruginosa) MNARLHATSPLGDADLVRADQAHYMHGYHVFDDHRVNGSLNIAAGDGAYIYDTAGNRYLDAVGGMWCTNIGLGREEMARTVAEQTRLLAYSNPFCDMANPRAIELCRKLAELAPGDLDHVFLTTGGSTAVDTAIRLMHYYQNCRGKRAKKHVITRINAYHGSTFLGMSLGGKSADRPAEFDFLDERIHHLACPYYYRAPEGLGEAEFLDGLVDEFERKILELGADRVGAFISEPVFGSGGVIVPPAGYHRRMWELCQRYDVLYISDEVVTSFGRLGHFFASQAVFGVQPDIILTAKGLTSGYQPLGACIFSRRIWEVIAEPDKGRCFSHGFTYSGHPVACAAALKNIEIIEREGLLAHADEVGRYFEERLQSLRDLPIVGDVRGMRFMACVEFVADKASKALFPESLNIGEWVHLRAQKRGLLVRPIVHLNVMSPPLILTREQVDTVVRVLRESIEETVEDLVRAGHR | – | accepted adipate semialdehyde as substrate | –
6 | SEQ ID NO 7: Chromobacterium violaceum ω-transaminase (Genbank Accession No. AAQ59697.1) (protein, listed as Chromobacterium violaceum) MQKQRTTSQWRELDAAHHLHPFTDTASLNQAGARVMTRGEGVYLWDSEGNKIIDGMAGLWCVNVGYGRKDFAEAARRQMEELPFYNTFFKTTHPAVVELSSLLAEVTPAGFDRVFYTNSGSESVDTMIRMVRRYWDVQGKPEKKTLIGRWNGYHGSTIGGASLGGMKYMHEQGDLPIPGMAHIEQPWWYKHGKDMTPDEFGVVAARWLEEKILEIGADKVAAFVGEPIQGAGGVIVPPATYWPEIERICRKYDVLLVADEVICGFGRTGEWFGHQHFGFQPDLFTAAKGLSSGYLPIGAVFVGKRVAEGLIAGGDFNHGFTYSGHPVCAAVAHANVAALRDEGIVQRVKDDIGPYMQKRWRETFSRFEHVDDVRGVGMVQAFTLVKNKAKRELFPDFGEIGTLCRDIFFRNNLIMRACGDHIVSAPPLVMTRAEVDEMLAVAERCLEEFEQTLKARGLA | accepted 6-aminohexanote as substrate | accepted adipate semialdehyde as substrate | –
